Numbering of substitutions follows the chain as printed.
Assays:
[1] = test system: T1, MBP-MogR (Bacillus thuringiensis 407), ORF:ee0ae10c; test: EMSA
T1 sequence: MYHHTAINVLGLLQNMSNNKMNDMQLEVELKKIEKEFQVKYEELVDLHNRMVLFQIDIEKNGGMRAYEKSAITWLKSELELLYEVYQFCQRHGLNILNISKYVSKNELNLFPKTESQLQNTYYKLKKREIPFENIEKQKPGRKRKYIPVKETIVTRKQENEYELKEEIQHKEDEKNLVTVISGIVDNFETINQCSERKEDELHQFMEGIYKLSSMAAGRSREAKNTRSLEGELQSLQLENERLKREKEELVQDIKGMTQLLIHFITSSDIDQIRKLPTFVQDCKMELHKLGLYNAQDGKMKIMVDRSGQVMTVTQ

[2] = test system: T2, MBP-MogRQN→AA Q119A;N120A (Bacillus thuringiensis 407), ORF:ee0ae10c; test: EMSA
T2 sequence: T1 sequence with Q119A, N120A

CAACTATCATAATATCACCTTTTCGGTAAACAAAGATAATCTAATATTAGAGTTTTTTTTTAAAGTTTGCAATAATCCTTTTAATAATTATGTAATAAAAAATGAATATATTGTTAAACTGTTATTTTTTTATATTTATTAATTCGAATTTTTAGTTGACACCCG (double strand) [fla promoter fragment]
binding [1]: binds
binding [2]: no binding

TTACAGAAATGAAATTTACGGATAACTATATTTATATAATTTTTTCGGTTCATATTTTTATTTAACAGTAAATTATCGATCGTAATCGACAAAATTTTTCTATTTACGCATTAAAAATTTAATGTTTTAATGAACAACATAACTGGTATGACCAGACAGAAAGGATAAGG (double strand) [hbl promoter fragment]
binding [1]: binds
